In US12565680B2, “Cancer neoantigens and their utilities in cancer vaccines and TCR-based cancer immunotherapy” (THE METHODIST HOSPITAL SYSTEM, priority 2018, dated 2026):

Experiments:
135TIL = experiment: IFN-γ ELISA with bulk 135TIL (IVT-RNA electroporated 135EBV-B cells; peptide titration and truncation); type: cell-based, human; conditions: serially diluted peptides
Procedure: Due to low transfection efficiency of EBV-B cells, in vitro transcribed (IVT) RNA of 24 TMGs were generated and then electroporated them into 135EBV-B cells, followed by adding 135TIL cells for antigen recognition based on cytokine release assay.
96-well tissue culture plates were coated with phosphate-buffered saline (PBS, GenDEPOT) containing 50 μg/ml poly-L-lysine (Millipore Sigma) at 37° C. 10 min later, the plates were rinsed twice with PBS. Tumor cells or 293-APCs were seeded at 5×10^4/well in the 96-well plate and cultured at 37° C., 5% CO2 for at least 4 h. For plasmid transfection, 250 ng of plasmid DNA were transfected into 293-APCs per well with 0.5 μl of Lipofectamine 2000 (Thermo Fisher Scientific) according to the manufacturer's instructions and incubated at 37° C., in 5% CO2 overnight. For peptide presentation, synthesized peptides (GeneScript) were added to each well at different final concentrations from 10^2 to 10^−4 μM and incubated at 37° C., 5% CO2. The cells transfected with plasmids or pulsed with peptides were washed with TCM twice, and then cocultured with T cells (1×10^5/well). […]
96-well microplate (Greiner Bio-one) was coated with 50 μl of PBS containing anti-human IFN-γ (Thermo Fisher Scientific, primary antibody, 1 μg/ml) per well and incubated at 4° C. overnight. […] The plate was read at OD450 nm. The concentration of IFN-γ was calculated by standard reading. […]

T-cell clones of 135TIL = experiment: IFN-γ ELISA with tumor-reactive T-cell clones of 135TIL; type: cell-based, human; conditions: peptide titration; 135-1C1 (ADIPOR2), 135-1E1 (LAGE1b)
Excerpt: Thus, immunogenic antigens can be generated from various sources or mechanisms [such as alternative ORFs, noncoding regions (3′ and 5′ UTRs, introns, noncoding RNA)]. […] All other tumor-reactive CD4^+ T-cell clones and CD8^+ T-cell clones recognized the mutation-derived neoantigens. […] To identify these two antigens recognized by these two CD4^+ T-cell clones, an Ii-fusion cDNA library derived from 135 mel tumor cells was constructed using experimental procedures. The Ii-fusion cDNA library pools (approximately 100 cDNA clones per pool) were transfected into 293IMDR3/DP4 or 293IMDR4/DP4 cells, followed by co-culturing with CD4^+ T-cell clones (135-1C1 or 135-1E1). After 2×10^5 cDNA clones, positive cDNA library pools that stimulate two T-cell clones, respectively, were identified based on IFN-γ release by ELISA (FIG. 6B). The positive pools were then transformed into Stbl3™ Escherichia coli, and single bacteria colonies were picked for plasmid DNA isolation. […] The 135-1E1 T cell-reactive cDNA clones encoded the product translated from an alternative reading frame of CTAG2 (LAGE1b) (FIG. 6C and FIG. 7A). […]
T-cell cloning and expansion were performed. […] On day 14, T-cell clones were harvested, counted, tested for tumor reactivity. […]

B1: … MEGAPAGPGGRTAACLSCTSRCLSRRPWKRSWSAGSCPGMPHRSPDQGRF (peptide)
chain: EALAFLMAQGAMLAAQERRVPRAAEVPGAQGQQGPRGREEAPRGVRMAVPLLRRMEGAPAGPGGRTAACLSCTSRCLSRRPWKRSWSAGSCPGMPHRSPDQGRF
notes: 109 aa peptide from frame-shifted reading frame (ORF2) of CTAG2 (LAGE1b)
Question: With B1 as the molecule, how does the “recognition of titrated peptides by 135TIL (IFN-γ ELISA)” value (135TIL) read?
Answer: little or no activity

Question: What about the “recognition of antigen peptides by specific T-cell clones” value (T-cell clones of 135TIL) of the same molecule?
Answer: strongly recognized
